# Data taken from patent US20210332141A1, “INSULIN-LIKE GROWTH FACTOR-1 RECEPTOR (IGF-1R) BINDING PROTEINS AND METHODS OF USE” (AMGEN INC., priority 2017, published 2021).
# What was measured:
# [1] = target: murine IGF-1R(ECD)-C3-mFc (murine) (UniProt Q60751); test: IGEN ligand blocking, competitor human Ru labeled IGF-2 on murine IGF-1R(ECD)-C3-mFc
# [2] = target: murine IGF-1R(ECD)-C3-mFc (murine) (UniProt Q60751); test: IGEN ligand blocking, maximal inhibition of human Ru labeled IGF-1 binding to murine IGF-1R(ECD)-C3-mFc
# [3] = target: murine IGF-1R(ECD)-C3-mFc (murine) (UniProt Q60751); test: Biacore, kinetic method, murine IGF-1R(ECD)-C3-mFc
# [4] = target: murine IGF-1R(ECD)-C3-mFc (murine) (UniProt Q60751); test: IGEN ligand blocking, competitor human Ru labeled IGF-1 on murine IGF-1R(ECD)-C3-mFc
# HER-2 = HER-2 (Homo sapiens, UniProt P04626); details: cellular; read-out: IC50 against Others: HER-2; cited from earlier work
# Chain of HER-2 (P04626 23-1255, species assumed): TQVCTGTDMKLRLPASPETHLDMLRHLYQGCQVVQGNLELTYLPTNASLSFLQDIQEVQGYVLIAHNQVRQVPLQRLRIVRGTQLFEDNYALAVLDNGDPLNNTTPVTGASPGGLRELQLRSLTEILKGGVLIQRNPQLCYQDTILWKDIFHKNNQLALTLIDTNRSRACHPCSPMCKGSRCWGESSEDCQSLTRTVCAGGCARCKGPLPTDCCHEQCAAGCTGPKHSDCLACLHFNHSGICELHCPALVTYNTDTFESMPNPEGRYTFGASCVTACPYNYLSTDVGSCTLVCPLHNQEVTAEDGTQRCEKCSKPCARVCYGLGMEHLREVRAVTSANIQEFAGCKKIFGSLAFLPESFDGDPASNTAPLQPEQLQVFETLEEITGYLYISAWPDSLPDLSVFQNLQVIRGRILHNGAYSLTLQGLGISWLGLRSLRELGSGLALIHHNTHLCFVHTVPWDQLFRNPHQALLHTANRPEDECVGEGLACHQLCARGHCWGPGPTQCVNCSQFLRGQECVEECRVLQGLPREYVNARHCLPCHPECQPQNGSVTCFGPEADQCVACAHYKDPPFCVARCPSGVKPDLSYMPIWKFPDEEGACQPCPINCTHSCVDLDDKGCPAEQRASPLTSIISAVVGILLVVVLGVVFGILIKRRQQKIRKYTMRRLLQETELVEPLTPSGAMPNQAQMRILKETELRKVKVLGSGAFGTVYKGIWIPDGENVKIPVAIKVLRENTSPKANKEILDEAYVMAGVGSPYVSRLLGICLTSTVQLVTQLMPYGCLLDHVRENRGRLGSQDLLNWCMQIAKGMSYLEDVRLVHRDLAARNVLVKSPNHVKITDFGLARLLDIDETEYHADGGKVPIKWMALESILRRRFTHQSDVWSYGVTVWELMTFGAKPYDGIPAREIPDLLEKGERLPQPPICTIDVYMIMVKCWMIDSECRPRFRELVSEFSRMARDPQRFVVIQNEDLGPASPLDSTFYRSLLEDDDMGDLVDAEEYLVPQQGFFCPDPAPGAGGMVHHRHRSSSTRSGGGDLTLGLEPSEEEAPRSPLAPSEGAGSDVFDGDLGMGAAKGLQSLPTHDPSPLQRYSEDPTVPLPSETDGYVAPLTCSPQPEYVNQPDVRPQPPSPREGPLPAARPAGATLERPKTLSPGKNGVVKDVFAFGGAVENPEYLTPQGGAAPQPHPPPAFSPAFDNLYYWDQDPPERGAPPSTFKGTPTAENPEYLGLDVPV
# Chain of murine IGF-1R(ECD)-C3-mFc (murine) (Q60751 31-936): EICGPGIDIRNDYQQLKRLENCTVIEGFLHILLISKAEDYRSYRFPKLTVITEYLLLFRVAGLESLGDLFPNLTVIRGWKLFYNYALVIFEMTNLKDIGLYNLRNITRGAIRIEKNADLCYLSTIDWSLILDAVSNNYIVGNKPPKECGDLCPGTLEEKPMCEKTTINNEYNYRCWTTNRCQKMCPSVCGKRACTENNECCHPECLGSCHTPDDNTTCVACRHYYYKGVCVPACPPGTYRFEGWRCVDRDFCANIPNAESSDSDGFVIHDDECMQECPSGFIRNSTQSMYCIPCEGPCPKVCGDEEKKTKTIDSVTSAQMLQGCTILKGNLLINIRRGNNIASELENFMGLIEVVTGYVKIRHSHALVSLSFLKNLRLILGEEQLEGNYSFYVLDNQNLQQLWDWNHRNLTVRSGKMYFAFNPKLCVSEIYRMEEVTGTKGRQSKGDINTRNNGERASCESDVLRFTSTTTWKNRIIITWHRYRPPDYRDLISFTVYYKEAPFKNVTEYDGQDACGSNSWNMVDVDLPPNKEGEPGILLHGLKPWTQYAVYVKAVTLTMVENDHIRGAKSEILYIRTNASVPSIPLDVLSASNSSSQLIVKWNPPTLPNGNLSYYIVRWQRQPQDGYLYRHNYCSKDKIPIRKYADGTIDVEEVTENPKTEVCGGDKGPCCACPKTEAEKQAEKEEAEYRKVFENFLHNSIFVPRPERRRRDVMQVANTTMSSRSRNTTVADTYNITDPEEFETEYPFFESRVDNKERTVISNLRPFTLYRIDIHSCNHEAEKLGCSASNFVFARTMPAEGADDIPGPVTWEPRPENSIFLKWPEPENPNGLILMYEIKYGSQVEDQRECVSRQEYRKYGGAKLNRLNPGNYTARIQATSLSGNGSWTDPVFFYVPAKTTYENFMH
Ki [1],IGF-1 Max (%) [2],Kd [3],Ki [4],Compound,IC50 (HER-2)
> 1000 nM,31%,0.33 nM,> 1000 nM,αIR3 (antibody),
,,,,"C[C@H](Cc1ccc(O)c(O)c1)[C@@H](C)Cc1ccc(O)c(O)c1 [INSM-18, nondihydroguaiaretic acid]",15000 nM
